# Experimental data taken from the RNAGym collection of RNA variant scans (doi:10.1073/pnas.2313332121).
# Fewer inactive variants are shown than the library holds.
# B1: TPR 5TU (parent)
# chain: GGAUCUUCUCGAUCUAACAAAAAAGACAAAUCUGCCACAAAGCUUGAGAGCAUCUUCGGAUGCAGAGGCGGCAGCCUUCGGUGGCGCGAUAGCGCCAACGUUCUCAACUAUGACACGCAAAACGCGUGCUCCGUUGAAUGGAGUUUAUCAUG
# Variants of: B1
# Test: polymerase ribozyme fitness, log enrichment relative to wild type (log ratio); higher = more active; in vitro selection for triplet polymerase activity
# Summary of the method: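 A heterodimeric triplet polymerase ribozyme had each of its subunits mutagenized by PCR into a library, which was transcribed. One round of in vitro selection, done in triplicate, annealed each library with a biotinylated primer, its partner subunit and triplets, then incubated it frozen at −7 °C before gel excision of extended constructs, streptavidin-bead capture and RT-PCR. Fitness is the logarithm of genotype enrichment relative to wild-type enrichment, based on Illumina sequencing of inputs and outputs and inverse-variance-weighted replicate averages. A base-2 logarithm is used, and genotypes were kept only with ≥10 input reads and ≥1 read per output.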
row,Variant,polymerase ribozyme fitness (log ratio)
1,U55G G143C,-2.79
2,U55G G143A,-0.655
3,U55G G62A C116G,-1.02
4,U56A C149U,-0.627
5,U56A C87G G94C U104C G117U A119U U134C,-3.94
6,U55G G68C A107C C125A U151G,≤ -4.2
7,U55G G92U U139G U146G,-1.4
8,U55G C72U G136C,-3.74
9,U55G G84U A98C U151C,≤ -4.2
10,U55G C99A,-3.24
11,U56A A60C G92U,-1.73
12,U56A C75U G143A,-0.711
13,U55G C75U,-0.769
14,U56A G58C C93A G124A,-2.36
15,U55G C87U U130C,-0.00301
16,U56A C96U U145A G152A,-2
17,U56A A60G,0.416
18,U56A C57A C85U C87U,-0.523
19,U55G U127A,-3.34
20,U55G U127C,-1.36
21,U55G C87U,-1.42
22,U55G U90G A97G U135G,≤ -4.2
23,U56A G59A C96U,0.392
24,U56A C57U U82A G84A G92U A106C G143C,≤ -4.2

row,Variant,polymerase ribozyme fitness (log ratio)
1,U56A C93U G141A,-3.72
2,U56A A73G C87G,≤ -4.2
3,U55G U134C G143U,-1.98
4,U56A G58C C93U U127G U145A,-3.83
5,U56A C95U C99U C125G,-2.57
6,U56A A73U C79G G88A,≤ -4.2
7,U55G C69A C99U,-0.89
8,U56A C93U C116U,-1.11
9,U56A C76A A119U A121C G126U,-1.11
10,U55G G83C U135A,-1.97
11,U55G U134A U139A,≤ -4.2
12,U56A C57U G86C A98C G141A G152A,-3.31
13,U56A C95U A98U,-1.6
14,U56A C95U A98C,-0.392
15,U56A G58U A97C C99A,-2.52
16,U56A A115C,-0.798
17,U56A C118U C123G U144C,-0.722
18,U56A A110C,-3.84
19,U56A C57U U61A C75A G88U A120U U139A G143C,≤ -4.2
20,U56A C96U C116U G143A,-3.36
21,U55G G84U A106G,-1.26
22,U56A C57G A66U G84A A98G C103A C125A,≤ -4.2
23,U56A C85U A121U C123G G124A U134A,-2.61
24,U56A C76U,0.105

row,Variant,polymerase ribozyme fitness (log ratio)
1,U56A A66C C72U G92A C93U C95A C116A,≤ -4.2
2,U56A C72G,-3.76
3,U56A A142U,-0.643
4,U56A C96A C103U,0.293
5,U55G G59C G94C U102A U127A U135C,≤ -4.2
6,U55G G83U,-0.389
7,U55G G83A,-0.31
8,U55G G83C,-0.921
9,U56A C57A G84A,-0.56
10,U55G U56A G68A C96U,≤ -4.2
11,U55G U82G C85A A97C U104C G136U,-3.65
12,U56A A113G,-1.32
13,U55G C87A G141C,-3.74
14,U55G C93U U101G,-0.936
15,U55G C72U,-0.349
16,U56A C85U G128U,-2.89
17,U56A C87U A98U C116G,0.0809
18,U56A G58C C85U,-0.365
19,U55G G59C A142C,-3.24
20,U56A A89G C99A,-1.89
21,U56A C69G U148A,-4.17
22,U56A C85U A142U,-1.06
23,U55G G133U,-4.16
24,U56A C69U C129U,-0.94

row,Variant,polymerase ribozyme fitness (log ratio)
1,U55G U56A U82C,-1.09
2,U55G G86A U134A,-3.62
3,U55G G65A A97U U130C,-1.27
4,U55G C105U G141U U145C U146G,-3.09
5,U56A C125G,-1.56
6,U55G U145A,-0.604
7,U56A A89U C96G,-1
8,U56A A60G C125G,-0.563
9,U56A A66G C95U C99U A120G,≤ -4.2
10,U55G G81A U139C,≤ -4.2
11,U55G G86A U139G,-1.96
12,U56A C75G C93A A98G A106C G141A,≤ -4.2
13,U56A A91G,-3.41
14,U55G C79U A91C G124C C129A A137U,≤ -4.2
15,U55G G81A C118U U135G,-3.84
16,U56A C96G U139G,-0.96
17,U55G C96A C105U,-0.496
18,U56A C69A G84A,-1.63
19,U56A C93U,-2.13
20,U56A C93G,-3.55
21,U56A C93A,-2.63
22,U55G C85U,-0.188
23,U55G C85A,-2.4
24,U55G C85G,-1.66

row,Variant,polymerase ribozyme fitness (log ratio)
1,U55G G84U,-0.827
2,U56A C96U A138U,-4.06
3,U56A C87A C105G G128C,≤ -4.2
4,U56A C69U A106G,-1.79
5,U56A A64U,-4.19
6,U55G G58C G59U G67C U78A C95U A113G,≤ -4.2
7,U56A C79U G83A,≤ -4.2
8,U56A G58U A115G,-0.802
9,U56A C95U C96G A110G A119G G152U,-4.13
10,U55G G58A C93A U109G,-3.3
11,U56A G58C G92U C93A C118A,-3.82
12,U56A C57U,0.273
13,U56A C57G C87A A119G G126A,≤ -4.2
14,U55G G84A A89U C103U,-1.64
15,U56A A91U C125U C132U G140A U148A,≤ -4.2
16,U56A A91G U148C,-3.72
17,U56A A97G,-0.89
18,U56A A97U,-1.47
19,U56A G58A A89C C95G A122C G124C G141C,-1.54
20,U55G G83A C103U U135A,-2.23
21,U55G C87A C118U U130G,≤ -4.2
22,U55G G94A A98U C118A,-1.56
23,U56A C57A U144A,-0.177
24,U56A A89U,-0.431

row,Variant,polymerase ribozyme fitness (log ratio)
1,U55G G70A C129G,≤ -4.2
2,U56A G58A C72U C87U U109G G136A U144C,-4.13
3,U56A A150C,-3.35
4,U55G C114U,-2.17
5,U55G G71U,-1.86
6,U56A G58C G92A A106G,-3.51
7,U55G G86U,-0.476
8,U55G G88U A97G U135G U148C,≤ -4.2
9,U56A C57U G83A,0.0377
10,U55G G80A,-2.09
11,U56A C125U A142C,-3.74
12,U56A G58A C87G G133U,≤ -4.2
13,U56A C96U G133A,≤ -4.2
14,U55G G62A G92U C96A,-3.44
15,U56A A115G G124C,-1.61
16,U55G G84A C99A A120G C131U,-2.08
17,U55G C79G U145A,≤ -4.2
18,U55G C85G C132U,-2.9
19,U56A C103U,-0.0268
20,U56A C103G,-0.914
21,U56A A73C G94C,-3.51
22,U56A C95A C103G C132A U146A,≤ -4.2
23,U56A G58A G88C,-3.84
24,U56A G59A A97U C149U,-1.48

row,Variant,polymerase ribozyme fitness (log ratio)
1,U55G U82A U148C,-2.51
2,U56A C85G C93G A107U U111G,≤ -4.2
3,U56A C103A A110G U144G,-3.91
4,U56A C93A A98U A107G C129U,≤ -4.2
5,U56A C57G A113C,-1.82
6,U56A A73G,-0.236
7,U55G C85U C131U U134C,1.73
8,U56A A91G C95U C105G A120G,-3.49
9,U56A G58U C69U C95A C96A C118U,-2.19
10,U56A C99U,-0.614
11,U56A C79U C118G C132A,-4.05
12,U55G C108G G133U A142C,-4.19
13,U56A C85U,-0.564
14,U56A C85A,-2.02
15,U56A C85G,-2.44
16,U56A C96U,-0.499
17,U56A G59A A113C G152U,≤ -4.2
18,U55G C72U G83U C96U,-1.11
19,U55G C93U,-1.83
20,U55G C93G,-4.19
21,U55G G81A G141C U146G,-2.62
22,U56A A60U C93U G141U,-3.71
23,U56A G58A C76U C123U C125G G143A,0.457
